{"source": "paper PMC6057844", "about": "(Biochemical and biophysical research communications, 2018)", "target": "the molecule itself", "data": [{"protein": "Drp1 in HD mouse striatal cells (natural protein, UniProt Q8K1M6 1-736, looked up) MEALIPVINKLQDVFNTVGADIIQLPQIVVVGTQSSGKSSVLESLVGRDLLPRGTGVVTRRPLILQLVHVSPEDKRKTTGEENGVEAEEWGKFLHTKNKLYTDFDEIRQEIENETERISGNNKGVSPEPIHLKVFSPNVVNLTLVDLPGMTKVPVGDQPKDIELQIRELILRFISNPNSIILAVTAANTDMATSEALKISREVDPDGRRTLAVITKLDLMDAGTDAMDVLMGRVIPVKLGIIGVVNRSQLDINNKKSVTDSIRDEYAFLQKKYPSLANRNGTKYLARTLNRLLMHHIRDCLPELKTRINVLAAQYQSLLNSYGEPVDDKSATLLQLITKFATEYCNTIEGTAKYIETSELCGGARICYIFHETFGRTLESVDPLGGLNTIDILTAIRNATGPRPALFVPEVSFELLVKRQIKRLEEPSLRCVELVHEEMQRIIQHCSNYSTQELLRFPKLHDAIVEVVTCLLRKRLPVTNEMVHNLVAIELAYINTKHPDFADACGLMNNNIEEQRRNRLARELPSAGSRDKSSKVPSALAPASQEPPPAASAEADGKLIQDNRRETKNVPSAGGGIGDGGQEPTTGNWRGMLKTSKAEELLAEEKSKPIPIMPASPQKGHAVNLLDVPVPVARKLSAREQRDCEVIERLIKSYFLIVRKNIQDSVPKAVMHFLVNHVKDTLQSELVGQLYKSSLLDDLLTESEDMAQRRKEAADMLKALQGASQIIAEIRETHLW", "values": [{"measurement": "stoichiometry N", "result": 4}]}]}
